Data published in patent publication US20250032630A1, “B7H4 ANTIBODY-DRUG CONJUGATE AND USE THEREOF” (Duality Biologics (Suzhou) Co., Ltd., priority 2022, published 2025).

Tests used:
[1] = target: T1, human B7-H7 (HHLA2) (human, UniProt Q9UM44 23-414); assay: flow cytometry on CHO-KI cells stably expressing human B7-H7 (HHLA2), one concentration
T1 construct: whole, on cells
T1 sequence (looked up): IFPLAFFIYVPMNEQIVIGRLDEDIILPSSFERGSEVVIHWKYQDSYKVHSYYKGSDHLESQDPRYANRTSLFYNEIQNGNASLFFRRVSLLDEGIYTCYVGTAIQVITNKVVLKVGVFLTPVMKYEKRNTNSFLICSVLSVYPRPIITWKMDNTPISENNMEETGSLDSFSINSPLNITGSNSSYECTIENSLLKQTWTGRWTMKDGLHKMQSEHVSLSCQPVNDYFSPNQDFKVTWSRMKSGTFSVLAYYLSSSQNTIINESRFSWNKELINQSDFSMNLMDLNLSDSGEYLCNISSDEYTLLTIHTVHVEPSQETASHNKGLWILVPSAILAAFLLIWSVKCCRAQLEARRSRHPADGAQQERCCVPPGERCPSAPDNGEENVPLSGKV

[2] = target: T2, human B7H4 (human, UniProt Q7Z7D3 25-282); assay: cell-based or functional assay
T2 sequence (looked up): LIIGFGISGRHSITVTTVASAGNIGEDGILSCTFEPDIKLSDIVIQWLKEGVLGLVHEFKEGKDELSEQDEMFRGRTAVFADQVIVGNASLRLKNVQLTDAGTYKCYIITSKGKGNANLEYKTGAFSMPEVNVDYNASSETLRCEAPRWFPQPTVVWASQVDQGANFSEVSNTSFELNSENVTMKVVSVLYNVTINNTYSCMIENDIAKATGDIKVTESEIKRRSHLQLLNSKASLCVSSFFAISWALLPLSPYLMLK

[3] = target: T3, human PD-L2 (B7-DC) (human, UniProt Q9BQ51 20-273); assay: flow cytometry on HEK293T cells stably expressing the human protein, one concentration
T3 construct: whole, on cells; also called CD273
T3 sequence (looked up): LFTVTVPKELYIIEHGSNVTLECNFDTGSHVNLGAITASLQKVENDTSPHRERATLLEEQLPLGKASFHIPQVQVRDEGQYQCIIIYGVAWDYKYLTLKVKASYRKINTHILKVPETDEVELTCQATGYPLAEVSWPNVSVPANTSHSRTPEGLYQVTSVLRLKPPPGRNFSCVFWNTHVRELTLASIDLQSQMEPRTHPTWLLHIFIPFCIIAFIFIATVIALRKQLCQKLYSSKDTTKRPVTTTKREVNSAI

[4] = target: T4, human CD276 (B7-H3) (human, UniProt Q5ZPR3 29-534); assay: as above
T4 construct: whole, on cells
T4 sequence (looked up): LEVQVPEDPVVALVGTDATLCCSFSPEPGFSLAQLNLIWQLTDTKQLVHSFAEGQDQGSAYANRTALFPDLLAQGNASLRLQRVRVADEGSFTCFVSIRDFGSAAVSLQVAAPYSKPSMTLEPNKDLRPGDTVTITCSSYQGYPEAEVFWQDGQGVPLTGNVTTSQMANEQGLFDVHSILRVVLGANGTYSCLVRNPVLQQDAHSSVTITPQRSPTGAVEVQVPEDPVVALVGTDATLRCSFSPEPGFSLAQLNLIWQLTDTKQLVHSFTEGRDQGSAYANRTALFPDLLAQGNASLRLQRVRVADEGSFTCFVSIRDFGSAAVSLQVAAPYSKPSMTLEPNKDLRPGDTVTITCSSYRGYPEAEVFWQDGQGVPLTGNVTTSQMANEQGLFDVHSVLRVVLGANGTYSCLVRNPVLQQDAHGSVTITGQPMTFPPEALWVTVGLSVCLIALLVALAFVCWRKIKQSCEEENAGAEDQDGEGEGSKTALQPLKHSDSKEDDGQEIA

[5] = target: T5, human VISTA (B7-H5) (human, UniProt Q9H7M9 33-311); assay: as above
T5 construct: whole, on cells
T5 sequence (looked up): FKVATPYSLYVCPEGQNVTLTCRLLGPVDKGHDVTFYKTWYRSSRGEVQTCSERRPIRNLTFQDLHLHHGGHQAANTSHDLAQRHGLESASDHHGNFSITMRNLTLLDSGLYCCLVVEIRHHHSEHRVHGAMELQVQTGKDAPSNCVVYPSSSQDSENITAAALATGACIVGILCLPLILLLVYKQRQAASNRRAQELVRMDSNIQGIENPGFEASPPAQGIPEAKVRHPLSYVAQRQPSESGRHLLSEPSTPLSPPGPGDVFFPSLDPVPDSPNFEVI

[6] = target: T6, human CD80 (B7-1) (human, UniProt P33681 35-288); assay: as above
T6 construct: whole, on cells
T6 sequence (looked up): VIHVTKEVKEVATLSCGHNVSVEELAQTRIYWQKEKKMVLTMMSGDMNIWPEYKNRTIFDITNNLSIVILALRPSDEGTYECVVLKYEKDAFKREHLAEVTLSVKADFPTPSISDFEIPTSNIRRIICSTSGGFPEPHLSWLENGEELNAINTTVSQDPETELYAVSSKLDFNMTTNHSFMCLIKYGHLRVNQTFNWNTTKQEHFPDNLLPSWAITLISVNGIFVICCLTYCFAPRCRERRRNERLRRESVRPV

[7] = target: T7, human CD86 (B7-2) (human, UniProt P42081 24-329); assay: as above
T7 construct: whole, on cells
T7 sequence (looked up): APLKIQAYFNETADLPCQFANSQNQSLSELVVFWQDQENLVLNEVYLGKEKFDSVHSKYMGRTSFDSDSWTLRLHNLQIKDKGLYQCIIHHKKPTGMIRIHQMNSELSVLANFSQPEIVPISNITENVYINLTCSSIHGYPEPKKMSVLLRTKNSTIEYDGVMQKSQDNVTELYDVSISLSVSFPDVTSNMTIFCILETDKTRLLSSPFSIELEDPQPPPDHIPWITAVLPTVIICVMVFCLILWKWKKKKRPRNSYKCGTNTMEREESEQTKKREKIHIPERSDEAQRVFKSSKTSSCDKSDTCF

[8] = target: T8, human ICOSLG (B7-H2) (human, UniProt O75144 19-302); assay: as above
T8 construct: whole, on cells
T8 sequence (looked up): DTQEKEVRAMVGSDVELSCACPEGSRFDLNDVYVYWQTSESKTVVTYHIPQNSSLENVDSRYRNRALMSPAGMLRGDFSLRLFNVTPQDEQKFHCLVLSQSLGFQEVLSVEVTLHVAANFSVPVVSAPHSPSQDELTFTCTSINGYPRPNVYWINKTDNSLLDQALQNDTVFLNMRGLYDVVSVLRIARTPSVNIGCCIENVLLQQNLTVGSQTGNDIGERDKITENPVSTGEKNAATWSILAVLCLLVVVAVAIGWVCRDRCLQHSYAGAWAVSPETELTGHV

B1: antibody-drug conjugate DB1001-X2 (antibody, DAR 5.4, V domains shown)
VH: QVQLVESGGGVVQPGRSLRLSCAASGFTFRSFGMHWVRQAPGKGLEWVAVISYDASNEYYADSVKGRFIISRDNSKDTLYLQMNSLRAGDTAVYYCAKGGALRWYFAYWGQGTLVTVSS
VL: EIVMTQSPATLSVSPGERATLSCRASQSISSNLGWYQQKPGQAPRLLIYGASTRATGIPARFSGSGSGTEFTLTISSLQSEDFAVYYCQQYRSWPPLTFGGGTKVEIKR
modifications: linker-cytotoxin X2 (payload P-III-30) coupled after TCEP reduction of the antibody; drug-to-antibody ratio (DAR) of 5.4; conjugation residues not stated
notes: also called anti-B7H4 ADC DB1001-X2
For B1, the binding result [1] was “no binding (tested: 100 nM or 300 nM)”, the “IC50 (nM), proliferation inhibition of MX-1 cells with high expression of B7H4 (3D culture, CTG)” value [2] was 52.4 nM and the “IC50 (nM), proliferation inhibition of RL95-2 cells with low expression of B7H4 (3D culture, CTG)” value [2] was 69.4 nM. B1: no binding (tested: 100 nM or 300 nM) [3]; no binding (tested: 100 nM or 300 nM) [4]; no binding (tested: 100 nM or 300 nM) [5]. B1: no binding (tested: 100 nM or 300 nM) [6]; no binding (tested: 100 nM or 300 nM) [7]; no binding (tested: 100 nM or 300 nM) [8].
